Test [1] deals with RomR-REC^141 (Myxococcus xanthus). The experiment in a line: SEC-MALS.
Test [2] deals with RomR-REC^125 (Myxococcus xanthus). The experiment in a line: ITC.
Test [3] deals with RomR-REC^141 (Myxococcus xanthus). The test can be described thus: ITC.
For a further test, the target named is T1, MglA (Myxococcus xanthus, UniProt Q1DB04 1-195).
T1 sequence: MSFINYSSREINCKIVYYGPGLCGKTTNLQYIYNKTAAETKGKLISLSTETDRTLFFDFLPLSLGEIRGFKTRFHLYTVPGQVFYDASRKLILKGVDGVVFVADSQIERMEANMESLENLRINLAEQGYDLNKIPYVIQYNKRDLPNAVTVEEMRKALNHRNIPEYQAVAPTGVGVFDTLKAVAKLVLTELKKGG
The experiment in a line: ITC.

These results are taken from doi:10.1101/2024.02.20.581209 (bioRxiv, 2024).

In turn, “RomX (hexahistidine-tagged, end of the tag not told for this experiment) (natural protein)” came in with a stoichiometry N in test [1] of 1.

B1: RomX (N-terminal hexahistidine tagged construct) (natural protein, M. xanthus)
chain: MTDEEKVKAMRLARAIASDISLYNEQKIIKGIEQDNLFEVLKEELEEGRELYKSRVSQEIFTKMNFFERAINDIVLRSKAHVKSKIW
B1: the Kd in test [2] stood at 1.14 µM; in test [3], 1.2 µM; in the test with MglA, 4.8 µM. The stoichiometry N was 1.3 in test [2], 1.2 in test [3] and 1.1 in the test with MglA.
